Data: EP4803885A1, “PROBE AND USE THEREOF IN IMAGING AND THERAPY” (priority 2023, dated 2025)

Assay: Near-infrared imaging of DIII-EphB4-EBD after conjugation with dye
Type: physicochemical
Conditions: after conjugation with near-infrared fluorescent dye, different concentrations, compared with Dye@DIII
Text: After induction, the supernatant of the BMMY induced expression culture was collected and sequentially filtered through 0.8 µm, 0.45 µm, and 0.22 µm membranes. The filtrate was then purified using an Albupure affinity column. The purified product was subjected to SDS-PAGE and near-infrared imaging for identification. As shown in Fig. 19 (left), the final eluate contained a highly purified product (indicated by the red dashed box).

B1: DIII-EphB4-EBD: fusion protein of albumin DIII and EphB4 ephrin-binding domain (SEQ ID NO: 14), tested after conjugation with near-infrared fluorescent dye (conjugate)
chain: VEEPQNLIKQNCELFEQLGEYKFQNALLVRYTKKVPQVSTPTLVEVSRNLGKVGSKCCKHPEAKRMPCAEDYLSVVLNQLCVLHEKTPVSDRVTKCCTESLVNRRPCFSALEVDETYVPKEFNAETFTFHADICTLSEKERQIKKQTALVELVKHKPKATKEQLKAVMDDFFVEKCCKADDKETCFAEEGKKLVSQLGLGGGGSGGGGSEETLLNTKLETADLKWVTFPQVDGQWEELSGLDEEQHSVRTYEVCDVQRAPGQAHWLRTGWVPRRGAVHVYATLRFTMLECLSLPRAGRSCKETFTVFYYESDADTATALTPAWMENPYIKVDTVAAEHLTRKRPGAEATGKVNVKTLRLGPLSKAGFYLAFQDQGACMALLSLHLFYKKCAQLTV
modifications: near-infrared fluorescent dye conjugated
- fluorescence characteristics: fluorescence characteristics consistent with those of the original DIII
